Laboratory results reported in patent US20150344570A1 (published 2015).

T1: FcγRIIa R (human, UniProt P12318 34-217)
T1 construct: extracellular domain; also called FcgRIIa R type; 2aR
T1 sequence (looked up): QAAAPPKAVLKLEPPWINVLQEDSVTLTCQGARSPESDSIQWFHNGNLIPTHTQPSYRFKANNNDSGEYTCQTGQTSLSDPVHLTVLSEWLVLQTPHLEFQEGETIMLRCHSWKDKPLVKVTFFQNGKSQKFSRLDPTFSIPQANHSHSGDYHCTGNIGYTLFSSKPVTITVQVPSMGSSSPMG

T2: FcγRIIb (human, UniProt P31994 43-217)
T2 construct: extracellular domain; also called FcgRIIb; 2b
T2 sequence (looked up): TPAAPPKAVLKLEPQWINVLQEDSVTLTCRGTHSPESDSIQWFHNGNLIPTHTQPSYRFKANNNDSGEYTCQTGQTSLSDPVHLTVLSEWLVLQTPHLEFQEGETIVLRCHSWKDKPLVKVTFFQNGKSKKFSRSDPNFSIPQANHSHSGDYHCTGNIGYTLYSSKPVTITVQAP

B1: GpH7-A5/GpH7-B3 variant Y296_05P/GpL16-k0 (antibody, human IgG1, kappa)
heavy 1: not shown
heavy 2: not shown
light: DIVMTQSPLSLPVTPGEPASISCQASESLVHSNRNTYLHWYLQKPGQSPQLLIYKVSNRFSGVPDRFSGSGSGTDFTLKISRVEAEDVGVYYCSQNTHVPPTFGQGTKVEIERTVAAPSVFIFPPSDEQLKSGTASVVCLLNNFYPREAKVQWKVDNALQSGNSQESVTEQDSKDSTYSLSSTLTLSKADYEKHKVYACEVTHQGLSSPVTKSFNRGEC
notes: heterodimerized anti-glypican-3 IgG1; alteration in one H chain only; also called He Ab
B2: GpH7-A5/GpH7-B3 variant Y296_12R/GpL16-k0 (antibody, human IgG1, kappa)
heavy 1: not shown
heavy 2: not shown
light: B1 light
notes: as for B1
B3: GpH7-A5/GpH7-B3 variant Y296_11K/GpL16-k0 (antibody, human IgG1, kappa)
heavy 1: not shown
heavy 2: not shown
light: B1 light
notes: as for B1
B4: GpH7-B3 variant T335_04F/GpL16-k0 (antibody, human IgG1, kappa)
heavy: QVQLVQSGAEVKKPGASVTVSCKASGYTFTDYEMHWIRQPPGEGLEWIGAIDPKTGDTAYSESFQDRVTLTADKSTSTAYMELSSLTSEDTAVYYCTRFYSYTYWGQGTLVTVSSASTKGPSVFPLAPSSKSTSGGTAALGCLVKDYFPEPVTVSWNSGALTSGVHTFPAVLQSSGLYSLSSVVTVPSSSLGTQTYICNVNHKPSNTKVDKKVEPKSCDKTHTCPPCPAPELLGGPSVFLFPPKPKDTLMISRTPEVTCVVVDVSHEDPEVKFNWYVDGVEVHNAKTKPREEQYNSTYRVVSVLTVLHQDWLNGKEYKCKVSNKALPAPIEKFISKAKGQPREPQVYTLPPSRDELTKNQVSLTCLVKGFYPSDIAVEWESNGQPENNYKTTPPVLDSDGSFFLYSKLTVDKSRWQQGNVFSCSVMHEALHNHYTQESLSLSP
light: B1 light
notes: homodimerized IgG1, mutation in both H chains; also called Ho Ab
B5: GpH7-B3 variant A330_01G/GpL16-k0 (antibody, human IgG1, kappa)
heavy: not shown
light: B1 light
notes: as for B4
B6: GpH7-B3 variant A330_20W/GpL16-k0 (antibody, human IgG1, kappa)
heavy: not shown
light: B1 light
notes: as for B4
B7: GpH7-B3 variant Y300_02A/GpL16-k0 (antibody, human IgG1, kappa)
heavy: not shown
light: B1 light
notes: as for B4
B8: GpH7-B3 variant T335_07I/GpL16-k0 (antibody, human IgG1, kappa)
heavy: not shown
light: B1 light
notes: as for B4
B9: GpH7-B3 variant S337_09D/GpL16-k0 (antibody, human IgG1, kappa)
heavy: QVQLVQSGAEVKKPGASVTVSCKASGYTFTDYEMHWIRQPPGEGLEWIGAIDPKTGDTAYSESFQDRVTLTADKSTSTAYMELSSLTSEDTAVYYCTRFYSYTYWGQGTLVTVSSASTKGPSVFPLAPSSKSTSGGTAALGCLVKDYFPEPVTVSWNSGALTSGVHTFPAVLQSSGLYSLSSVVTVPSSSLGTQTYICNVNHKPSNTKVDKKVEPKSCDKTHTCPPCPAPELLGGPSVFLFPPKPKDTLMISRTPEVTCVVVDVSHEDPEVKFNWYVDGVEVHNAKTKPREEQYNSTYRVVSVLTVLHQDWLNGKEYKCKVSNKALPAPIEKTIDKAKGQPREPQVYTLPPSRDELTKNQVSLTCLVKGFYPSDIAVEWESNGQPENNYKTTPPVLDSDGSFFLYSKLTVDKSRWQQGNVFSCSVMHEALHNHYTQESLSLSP
light: B1 light
notes: as for B4
B10: GpH7-B3 variant A330_04F/GpL16-k0 (antibody, human IgG1, kappa)
heavy: not shown
light: B1 light
notes: as for B4
B11: GpH7-B3 variant T335_19Q/GpL16-k0 (antibody, human IgG1, kappa)
heavy: not shown
light: B1 light
notes: as for B4
B12: GpH7-B3 variant T335_16H/GpL16-k0 (antibody, human IgG1, kappa)
heavy: not shown
light: B1 light
notes: as for B4
B13: GpH7-B3 variant T335_05P/GpL16-k0 (antibody, human IgG1, kappa)
heavy: not shown
light: B1 light
notes: as for B4
B14: GpH7-B3 variant Y300_06M/GpL16-k0 (antibody, human IgG1, kappa)
heavy: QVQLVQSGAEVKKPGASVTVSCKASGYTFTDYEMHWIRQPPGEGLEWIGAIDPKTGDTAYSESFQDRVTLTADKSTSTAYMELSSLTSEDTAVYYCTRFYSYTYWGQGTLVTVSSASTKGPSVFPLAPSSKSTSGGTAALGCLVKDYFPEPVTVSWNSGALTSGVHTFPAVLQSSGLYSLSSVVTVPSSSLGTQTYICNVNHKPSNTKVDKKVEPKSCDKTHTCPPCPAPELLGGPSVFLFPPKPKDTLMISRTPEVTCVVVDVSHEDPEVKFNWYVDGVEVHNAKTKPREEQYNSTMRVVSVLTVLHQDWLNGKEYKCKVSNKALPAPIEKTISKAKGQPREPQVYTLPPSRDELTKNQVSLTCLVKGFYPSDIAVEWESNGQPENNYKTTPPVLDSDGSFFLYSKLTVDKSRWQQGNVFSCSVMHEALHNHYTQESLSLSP
light: B1 light
notes: as for B4
B15: GpH7-B3 variant S337_06M/GpL16-k0 (antibody, human IgG1, kappa)
heavy: not shown
light: B1 light
notes: as for B4
B16: GpH7-B3 variant Y296_06M/GpL16-k0 (antibody, human IgG1, kappa)
heavy: not shown
light: B1 light
notes: as for B4
B17: GpH7-B3 variant S337_08L/GpL16-k0 (antibody, human IgG1, kappa)
heavy: not shown
light: B1 light
notes: as for B4
B18: GpH7-B3 variant S337_04F/GpL16-k0 (antibody, human IgG1, kappa)
heavy: not shown
light: B1 light
notes: as for B4
B19: GpH7-B3 variant S337_19Q/GpL16-k0 (antibody, human IgG1, kappa)
heavy: not shown
light: B1 light
notes: as for B4
B20: GpH7-B3 variant I336_13S/GpL16-k0 (antibody, human IgG1, kappa)
heavy: not shown
light: B1 light
notes: as for B4
B21: GpH7-B3 variant T335_10E/GpL16-k0 (antibody, human IgG1, kappa)
heavy: not shown
light: B1 light
notes: as for B4
B22: GpH7-B3 variant Y296_20W/GpL16-k0 (antibody, human IgG1, kappa)
heavy: not shown
light: B1 light
notes: as for B4
B23: GpH7-B3 variant S337_20W/GpL16-k0 (antibody, human IgG1, kappa)
heavy: not shown
light: B1 light
notes: as for B4
B24: GpH7-B3 variant H268_09D/GpL16-k0 (antibody, human IgG1, kappa)
heavy: not shown
light: B1 light
notes: as for B4
B25: GpH7-B3 variant T335_20W/GpL16-k0 (antibody, human IgG1, kappa)
heavy: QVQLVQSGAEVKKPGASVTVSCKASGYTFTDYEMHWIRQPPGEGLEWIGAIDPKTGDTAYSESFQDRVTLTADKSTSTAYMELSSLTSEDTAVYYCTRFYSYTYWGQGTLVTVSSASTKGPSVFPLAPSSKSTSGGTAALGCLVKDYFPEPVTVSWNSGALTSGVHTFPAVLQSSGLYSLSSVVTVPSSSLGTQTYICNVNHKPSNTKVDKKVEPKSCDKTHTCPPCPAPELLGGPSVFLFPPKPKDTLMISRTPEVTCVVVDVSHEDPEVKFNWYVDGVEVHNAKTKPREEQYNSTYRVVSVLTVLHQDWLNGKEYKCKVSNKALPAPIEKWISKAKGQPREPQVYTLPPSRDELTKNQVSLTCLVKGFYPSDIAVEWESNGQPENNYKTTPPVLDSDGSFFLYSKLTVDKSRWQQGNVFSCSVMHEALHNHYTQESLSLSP
light: B1 light
notes: as for B4
B26: GpH7-B3 variant I336_09D/GpL16-k0 (antibody, human IgG1, kappa)
heavy: not shown
light: B1 light
notes: as for B4
B27: GpH7-B3 variant H268_01G/GpL16-k0 (antibody, human IgG1, kappa)
heavy: not shown
light: B1 light
notes: as for B4
B28: GpH7-B3 variant T335_09D/GpL16-k0 (antibody, human IgG1, kappa)
heavy: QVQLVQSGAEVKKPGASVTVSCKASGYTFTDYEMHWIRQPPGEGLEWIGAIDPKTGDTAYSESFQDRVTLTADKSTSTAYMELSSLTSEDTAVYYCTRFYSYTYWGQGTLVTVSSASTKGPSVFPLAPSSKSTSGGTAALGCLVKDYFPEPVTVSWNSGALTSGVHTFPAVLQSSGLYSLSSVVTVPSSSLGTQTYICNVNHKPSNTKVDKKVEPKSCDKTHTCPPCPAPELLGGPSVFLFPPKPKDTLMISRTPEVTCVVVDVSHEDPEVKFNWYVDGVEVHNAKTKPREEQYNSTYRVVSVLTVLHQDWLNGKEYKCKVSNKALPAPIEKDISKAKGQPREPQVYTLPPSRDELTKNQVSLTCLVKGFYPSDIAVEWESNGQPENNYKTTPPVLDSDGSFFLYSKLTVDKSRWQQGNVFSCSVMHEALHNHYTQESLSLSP
light: B1 light
notes: as for B4
B29: GpH7-B3 variant Y300_03V/GpL16-k0 (antibody, human IgG1, kappa)
heavy: not shown
light: B1 light
notes: as for B4
B30: GpH7-B3 variant T335_12R/GpL16-k0 (antibody, human IgG1, kappa)
heavy: not shown
light: B1 light
notes: as for B4
B31: GpH7-B3 variant H268_10E/GpL16-k0 (antibody, human IgG1, kappa)
heavy: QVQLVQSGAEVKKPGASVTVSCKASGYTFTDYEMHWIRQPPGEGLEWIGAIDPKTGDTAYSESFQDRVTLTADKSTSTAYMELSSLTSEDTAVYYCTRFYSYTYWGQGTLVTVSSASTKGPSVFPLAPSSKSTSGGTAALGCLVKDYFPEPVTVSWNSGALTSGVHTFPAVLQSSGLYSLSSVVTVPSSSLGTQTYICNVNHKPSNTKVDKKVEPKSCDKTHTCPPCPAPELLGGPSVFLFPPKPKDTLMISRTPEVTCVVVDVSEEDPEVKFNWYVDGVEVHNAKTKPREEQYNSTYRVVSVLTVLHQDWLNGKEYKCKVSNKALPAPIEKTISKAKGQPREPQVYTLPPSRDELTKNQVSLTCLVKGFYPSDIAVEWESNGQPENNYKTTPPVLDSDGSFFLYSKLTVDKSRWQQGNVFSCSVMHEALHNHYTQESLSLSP
light: B1 light
notes: as for B4
B32: GpH7-B3 variant Y296_12R/GpL16-k0 (antibody, human IgG1, kappa)
heavy: not shown
light: B1 light
notes: as for B4
B33: GpH7-B3 variant T335_15Y/GpL16-k0 (antibody, human IgG1, kappa)
heavy: not shown
light: B1 light
notes: as for B4
B34: GpH7-B3 variant Y296_16H/GpL16-k0 (antibody, human IgG1, kappa)
heavy: not shown
light: B1 light
notes: as for B4
B35: GpH7-B3 variant I336_12R/GpL16-k0 (antibody, human IgG1, kappa)
heavy: not shown
light: B1 light
notes: as for B4
B36: GpH7-B3 variant I336_08L/GpL16-k0 (antibody, human IgG1, kappa)
heavy: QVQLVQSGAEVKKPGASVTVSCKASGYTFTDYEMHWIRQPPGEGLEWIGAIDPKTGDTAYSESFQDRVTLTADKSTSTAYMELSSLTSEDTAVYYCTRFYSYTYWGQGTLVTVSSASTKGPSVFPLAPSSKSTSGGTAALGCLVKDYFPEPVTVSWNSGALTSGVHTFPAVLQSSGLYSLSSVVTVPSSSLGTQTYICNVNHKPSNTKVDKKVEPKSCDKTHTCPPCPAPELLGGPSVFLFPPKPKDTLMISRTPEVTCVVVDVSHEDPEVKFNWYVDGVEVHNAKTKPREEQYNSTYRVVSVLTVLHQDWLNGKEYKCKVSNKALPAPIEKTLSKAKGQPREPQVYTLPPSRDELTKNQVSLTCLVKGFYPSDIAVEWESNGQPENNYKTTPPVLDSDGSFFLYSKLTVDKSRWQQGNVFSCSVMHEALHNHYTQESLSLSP
light: B1 light
notes: as for B4
B37: GpH7-B3 variant S337_07I/GpL16-k0 (antibody, human IgG1, kappa)
heavy: not shown
light: B1 light
notes: as for B4
B38: GpH7-B3 variant S337_10E/GpL16-k0 (antibody, human IgG1, kappa)
heavy: not shown
light: B1 light
notes: as for B4
B39: GpH7-B3 variant I336_14T/GpL16-k0 (antibody, human IgG1, kappa)
heavy: not shown
light: B1 light
notes: as for B4
B40: GpH7-B3 variant T335_06M/GpL16-k0 (antibody, human IgG1, kappa)
heavy: not shown
light: B1 light
notes: as for B4
B41: GpH7-B3 variant T335_18N/GpL16-k0 (antibody, human IgG1, kappa)
heavy: not shown
light: B1 light
notes: as for B4
B42: GpH7-B3 variant Y300_08L/GpL16-k0 (antibody, human IgG1, kappa)
heavy: not shown
light: B1 light
notes: as for B4
B43: GpH7-B3 variant A330_19Q/GpL16-k0 (antibody, human IgG1, kappa)
heavy: not shown
light: B1 light
notes: as for B4
B44: GpH7-B3 variant H268_18N/GpL16-k0 (antibody, human IgG1, kappa)
heavy: not shown
light: B1 light
notes: as for B4
B45: GpH7-B3 variant T335_08L/GpL16-k0 (antibody, human IgG1, kappa)
heavy: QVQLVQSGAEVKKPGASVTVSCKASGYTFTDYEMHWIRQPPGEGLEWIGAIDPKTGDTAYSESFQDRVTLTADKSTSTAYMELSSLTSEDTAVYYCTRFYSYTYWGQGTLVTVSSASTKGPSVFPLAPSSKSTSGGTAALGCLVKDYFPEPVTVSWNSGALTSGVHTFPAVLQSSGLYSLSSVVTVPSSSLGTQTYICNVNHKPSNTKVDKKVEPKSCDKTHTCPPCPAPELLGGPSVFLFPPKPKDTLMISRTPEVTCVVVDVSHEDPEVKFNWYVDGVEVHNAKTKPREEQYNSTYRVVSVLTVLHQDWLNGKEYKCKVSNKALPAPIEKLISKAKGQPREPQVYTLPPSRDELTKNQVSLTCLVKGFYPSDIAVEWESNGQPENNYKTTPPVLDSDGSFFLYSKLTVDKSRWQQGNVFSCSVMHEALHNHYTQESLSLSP
light: B1 light
notes: as for B4
B46: GpH7-B3 variant A330_10E/GpL16-k0 (antibody, human IgG1, kappa)
heavy: not shown
light: B1 light
notes: as for B4
B47: GpH7-B3 variant I336_11K/GpL16-k0 (antibody, human IgG1, kappa)
heavy: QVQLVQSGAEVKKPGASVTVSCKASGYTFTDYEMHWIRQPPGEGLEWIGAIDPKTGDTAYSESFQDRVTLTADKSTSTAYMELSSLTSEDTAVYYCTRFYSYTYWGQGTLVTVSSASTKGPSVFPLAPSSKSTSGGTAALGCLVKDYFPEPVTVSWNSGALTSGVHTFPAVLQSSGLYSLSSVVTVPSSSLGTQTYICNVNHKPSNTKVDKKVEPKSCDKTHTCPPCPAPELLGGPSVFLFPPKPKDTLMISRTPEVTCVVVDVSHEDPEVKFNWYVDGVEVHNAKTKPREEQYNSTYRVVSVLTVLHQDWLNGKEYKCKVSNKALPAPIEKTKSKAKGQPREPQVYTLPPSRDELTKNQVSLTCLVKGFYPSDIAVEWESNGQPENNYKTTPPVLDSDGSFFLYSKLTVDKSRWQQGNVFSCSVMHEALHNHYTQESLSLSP
light: B1 light
notes: as for B4
B48: GpH7-B3 variant S337_15Y/GpL16-k0 (antibody, human IgG1, kappa)
heavy: not shown
light: B1 light
notes: as for B4
B49: GpH7-B3 variant T335_11K/GpL16-k0 (antibody, human IgG1, kappa)
heavy: not shown
light: B1 light
notes: as for B4
B50: GpH7-B3 variant H268_13S/GpL16-k0 (antibody, human IgG1, kappa)
heavy: not shown
light: B1 light
notes: as for B4
B51: GpH7-B3 variant D265_10E/GpL16-k0 (antibody, human IgG1, kappa)
heavy: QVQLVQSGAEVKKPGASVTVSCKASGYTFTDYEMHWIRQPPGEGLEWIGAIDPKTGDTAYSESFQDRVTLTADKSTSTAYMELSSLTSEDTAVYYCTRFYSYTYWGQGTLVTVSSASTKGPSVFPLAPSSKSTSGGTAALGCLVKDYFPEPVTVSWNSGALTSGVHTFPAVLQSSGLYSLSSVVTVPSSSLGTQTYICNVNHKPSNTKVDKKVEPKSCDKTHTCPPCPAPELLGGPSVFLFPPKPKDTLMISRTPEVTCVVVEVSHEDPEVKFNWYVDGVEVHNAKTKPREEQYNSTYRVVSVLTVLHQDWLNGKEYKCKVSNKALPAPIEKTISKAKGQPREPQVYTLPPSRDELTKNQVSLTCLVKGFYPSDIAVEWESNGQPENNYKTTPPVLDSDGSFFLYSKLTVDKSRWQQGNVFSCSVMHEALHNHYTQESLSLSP
light: B1 light
notes: as for B4
B52: GpH7-B3 variant Y296_11K/GpL16-k0 (antibody, human IgG1, kappa)
heavy: not shown
light: B1 light
notes: as for B4

These binders were tested against T1, FcγRIIa R (assay: SPR (Biacore); He/Con_2aR divided by He/Con_2b (FcγRIIa R over FcγRIIb)).

He_2aR/2b (IIaR/IIb) [ratio] | Binder
1.3 | B1
1.25 | B2
1.3 | B3

Each binder was assayed against T3, FcγRIa (human, UniProt P12314 16-292) (assay: SPR (Biacore), captured antibody, FcγRIa analyte; relative to GpH7-B3/GpL16-k0).
T3 construct: extracellular domain; soluble His-tagged extracellular domain expressed in FreeStyle293 cells, used as analyte in Biacore; also called FcgRI; CD64
T3 sequence (P12314 16-292): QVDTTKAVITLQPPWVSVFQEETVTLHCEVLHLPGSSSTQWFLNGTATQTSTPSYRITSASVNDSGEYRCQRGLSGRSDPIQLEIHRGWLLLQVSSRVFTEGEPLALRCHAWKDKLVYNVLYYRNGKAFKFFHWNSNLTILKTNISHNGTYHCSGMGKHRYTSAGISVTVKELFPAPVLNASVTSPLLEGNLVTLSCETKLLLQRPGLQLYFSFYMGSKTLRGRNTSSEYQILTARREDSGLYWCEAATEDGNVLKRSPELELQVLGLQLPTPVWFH

Ho/Con_1a | Binder
105 relative, control = 100 | B4
106 relative, control = 100 | B5
108 relative, control = 100 | B6
110 relative, control = 100 | B7
105 relative, control = 100 | B8
106 relative, control = 100 | B9
107 relative, control = 100 | B10
105 relative, control = 100 | B11
104 relative, control = 100 | B12
106 relative, control = 100 | B13
111 relative, control = 100 | B14
102 relative, control = 100 | B15
104 relative, control = 100 | B16
105 relative, control = 100 | B17
105 relative, control = 100 | B18
105 relative, control = 100 | B19
110 relative, control = 100 | B20
108 relative, control = 100 | B21
106 relative, control = 100 | B22
104 relative, control = 100 | B23
110 relative, control = 100 | B24
104 relative, control = 100 | B25
108 relative, control = 100 | B26
108 relative, control = 100 | B27
107 relative, control = 100 | B28

Ho/Con_1a | Binder
112 relative, control = 100 | B29
106 relative, control = 100 | B30
112 relative, control = 100 | B31
103 relative, control = 100 | B32
106 relative, control = 100 | B33
105 relative, control = 100 | B34
109 relative, control = 100 | B35
109 relative, control = 100 | B36
105 relative, control = 100 | B37
104 relative, control = 100 | B38
111 relative, control = 100 | B39
106 relative, control = 100 | B40
102 relative, control = 100 | B41
109 relative, control = 100 | B42
106 relative, control = 100 | B43
108 relative, control = 100 | B44
105 relative, control = 100 | B45
108 relative, control = 100 | B46
107 relative, control = 100 | B47
104 relative, control = 100 | B48
103 relative, control = 100 | B49
110 relative, control = 100 | B50
103 relative, control = 100 | B51
102 relative, control = 100 | B52

The binders below were run against T1, FcγRIIa R (assay: SPR (Biacore), captured antibody, FcγR as analyte; relative binding, control GpH7-A5/GpH7-B3/GpL16-k0 = 100).

He/Con_2aR [control = 100] | Binder
47.7 | B1
99.6 | B2
94.3 | B3

What follows are binders tested against T2, FcγRIIb in the same assay as above.

He/Con_2b [control = 100] | Binder
36.6 | B1
79.5 | B2
72.8 | B3
